Consider two molecules from article PMC7022901, “Back to GroEL-Assisted Protein Folding: GroES Binding-Induced Displacement of Denatured Proteins from GroEL to Bulk Solution” (Biomolecules, 2020).

In test [1] the target is T1, GroEL chaperonin (Escherichia coli, UniProt P0A6F5 1-548).
T1 construct: GroEL (hsp60) chaperonin of Escherichia coli, expressed from the cloned groE operon; 14 identical subunits of 57 kDa in two heptameric rings; no tag is mentioned; also called hsp60; GroEL14; source: E. coli HB101, multicopy plasmid pGroE4 (groE operon of E. coli in pACYC184), purified; copies: 14
T1 sequence (P0A6F5 whole entry): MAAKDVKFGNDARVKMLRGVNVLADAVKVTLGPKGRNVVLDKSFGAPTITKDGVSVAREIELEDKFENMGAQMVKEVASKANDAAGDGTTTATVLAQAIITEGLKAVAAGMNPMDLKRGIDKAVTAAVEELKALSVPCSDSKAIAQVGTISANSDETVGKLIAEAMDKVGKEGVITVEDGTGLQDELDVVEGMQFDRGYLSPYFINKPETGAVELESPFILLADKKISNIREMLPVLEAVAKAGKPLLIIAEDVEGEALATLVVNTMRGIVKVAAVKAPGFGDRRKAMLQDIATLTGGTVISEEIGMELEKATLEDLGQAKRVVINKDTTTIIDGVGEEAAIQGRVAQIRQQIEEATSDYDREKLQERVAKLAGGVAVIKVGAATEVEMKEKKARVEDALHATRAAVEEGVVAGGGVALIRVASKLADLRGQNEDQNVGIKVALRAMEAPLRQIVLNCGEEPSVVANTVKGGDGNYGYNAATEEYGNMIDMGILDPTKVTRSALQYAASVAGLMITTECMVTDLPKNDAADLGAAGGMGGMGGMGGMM
Description: native gel or EMSA; non-denaturing electrophoresis of GroEL with equimolar fluorescein-labeled denatured proteins in the presence of DTT and Mg-ADP, before and after 10 min incubation with a two-fold molar excess of GroES; Coomassie staining and fluorescence. The settings on record: both partners purified. (A gel shift assay detects complexes by their altered migration in electrophoresis.)

In test [2] the target is T1, GroEL chaperonin. Put plainly: FRET or BRET; streptavidin trap: denatured biotin- and fluorescein-labeled substrate diluted into equimolar GroEL, then streptavidin-aequorin and free biotin added; BRET (I520/I470) from aequorin to fluorescein reports substrate free in bulk solution; with or without 10 mM Mg-ATP and two-fold molar excess of GroES. The settings on record: both partners purified. On the technique in general: In BRET a luciferase serves as donor, and the signal depends on an acceptor being close.

B1: GroES co-chaperonin (natural protein, Escherichia coli, UniProt P0A6F9 1-97, looked up)
chain: MNIRPLHDRVIVKRKEVETKSAGGIVLTGSAAAKSTRGEVLAVGNGRILENGEVKPLDVKVGDIVIFNDGYGVKSEKIDNEEVLIMSESDILAIVEA
notes: GroES (hsp10) co-chaperonin of Escherichia coli, expressed from the cloned groE operon; 7 identical subunits of ~10 kDa; no tag is mentioned; also called hsp10; GroES7; source: E. coli HB101, multicopy plasmid pGroE4 (groE operon of E. coli in pACYC184), purified
As to B1, the binding result with GroEL chaperonin [1] is recorded as “binds”.

B2: biotin- and fluorescein-labeled pig mitochondrial malate dehydrogenase, early refolding intermediate (natural protein, UniProt P00346 25-338, looked up)
chain: AKVAVLGASGGIGQPLSLLLKNSPLVSRLTLYDIAHTPGVAADLSHIETRATVKGYLGPEQLPDCLKGCDVVVIPAGVPRKPGMTRDDLFNTNATIVATLTAACAQHCPDAMICIISNPVNSTIPITAEVFKKHGVYNPNKIFGVTTLDIVRANAFVAELKGLDPARVSVPVIGGHAGKTIIPLISQCTPKVDFPQDQLSTLTGRIQEAGTEVVKAKAGAGSATLSMAYAGARFVFSLVDAMNGKEGVVECSFVKSQETDCPYFSTPLLLGKKGIEKNLGIGKISPFEEKMIAEAIPELKASIKKGEEFVKNMK
modifications: fluorescein label (5(6)-FAM, SE); biotin (biotin succinimide ester)
notes: pig mitochondrial malate dehydrogenase; also called BFM; MDH; source: bought: Sigma or Serva, additionally purified by ion-exchange and size-exclusion chromatography
For B2, the binding result with GroEL chaperonin [2] was “binds”.
